Assay results taken from patent US7696168 (TUFTS MEDICAL CENTER, dated 2010).
The star is where a group is joined. Palmitoyl = CCCCCCCCCCCCCCCC(=O)*

Legend:
PAR1 delta377 mutant = PAR1 delta377 mutant (UniProt P25116)
PAR1 S309P mutant = target: T1, PAR1 S309P mutant (human, UniProt P25116 42-425); assay: cell-based or functional assay
T1 sequence (looked up): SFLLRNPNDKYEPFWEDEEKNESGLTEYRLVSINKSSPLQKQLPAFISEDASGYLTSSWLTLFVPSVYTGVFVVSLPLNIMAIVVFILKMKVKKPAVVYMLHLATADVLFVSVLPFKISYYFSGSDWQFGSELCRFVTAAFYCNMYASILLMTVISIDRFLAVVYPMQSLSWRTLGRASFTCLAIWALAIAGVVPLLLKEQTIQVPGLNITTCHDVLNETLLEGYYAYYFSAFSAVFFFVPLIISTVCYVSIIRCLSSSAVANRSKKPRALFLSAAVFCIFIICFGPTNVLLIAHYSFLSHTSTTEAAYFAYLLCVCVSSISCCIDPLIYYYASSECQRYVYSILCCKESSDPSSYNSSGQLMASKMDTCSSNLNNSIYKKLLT

human PAR1 [1] = target: T2, human PAR1 (human, UniProt P25116 42-425); assay: cell-based or functional assay
T2 sequence (looked up): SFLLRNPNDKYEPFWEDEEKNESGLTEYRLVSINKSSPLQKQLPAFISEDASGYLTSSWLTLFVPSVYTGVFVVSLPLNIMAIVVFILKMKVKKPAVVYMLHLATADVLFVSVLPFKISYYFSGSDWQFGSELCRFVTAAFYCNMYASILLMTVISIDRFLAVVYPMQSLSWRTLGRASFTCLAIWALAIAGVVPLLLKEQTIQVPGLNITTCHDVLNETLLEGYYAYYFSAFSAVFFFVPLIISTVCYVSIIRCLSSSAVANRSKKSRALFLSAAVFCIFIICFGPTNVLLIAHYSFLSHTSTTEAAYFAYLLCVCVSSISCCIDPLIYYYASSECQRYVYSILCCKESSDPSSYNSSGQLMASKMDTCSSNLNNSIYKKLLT

human PAR1 [2] = target: T2, human PAR1; assay: cell-based or functional assay; remark: listed apart in the source
human PAR4 [3] = target: T3, human PAR4 (human, UniProt Q96RI0 48-385); assay: cell-based or functional assay
T3 sequence (looked up): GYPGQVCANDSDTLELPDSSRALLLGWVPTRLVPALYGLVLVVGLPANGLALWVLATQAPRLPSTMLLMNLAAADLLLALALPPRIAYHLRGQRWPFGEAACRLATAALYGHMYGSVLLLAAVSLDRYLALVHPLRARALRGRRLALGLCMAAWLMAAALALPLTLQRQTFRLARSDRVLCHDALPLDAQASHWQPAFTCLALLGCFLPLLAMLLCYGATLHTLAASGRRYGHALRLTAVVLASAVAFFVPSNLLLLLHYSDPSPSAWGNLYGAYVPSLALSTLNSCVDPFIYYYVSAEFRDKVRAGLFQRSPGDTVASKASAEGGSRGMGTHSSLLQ

murine PAR4 = target: T4, murine PAR4 (mouse, UniProt O88634 60-396); assay: cell-based or functional assay
T4 sequence (looked up): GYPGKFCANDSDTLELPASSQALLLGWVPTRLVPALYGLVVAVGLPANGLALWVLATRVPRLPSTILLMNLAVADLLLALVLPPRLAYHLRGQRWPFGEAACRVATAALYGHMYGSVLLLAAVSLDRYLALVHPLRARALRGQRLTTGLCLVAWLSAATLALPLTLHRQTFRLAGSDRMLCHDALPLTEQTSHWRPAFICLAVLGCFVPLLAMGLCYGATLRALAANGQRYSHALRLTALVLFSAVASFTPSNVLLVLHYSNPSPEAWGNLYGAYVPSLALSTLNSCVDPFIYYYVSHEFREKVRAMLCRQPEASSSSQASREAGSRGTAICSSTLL

[4] = target: human glucagon-like peptide-1 receptor (GLP-1R) (human, UniProt P43220 24-463); assay: cell-based or functional assay
human PAR4 [5] = target: T3, human PAR4; assay: cell-based or functional assay; remark: listed apart in the source
[6] = target: T5, human cholecystokinin B receptor (CCKB) (human, UniProt P32239 1-447); assay: cell-based or functional assay
T5 sequence (looked up): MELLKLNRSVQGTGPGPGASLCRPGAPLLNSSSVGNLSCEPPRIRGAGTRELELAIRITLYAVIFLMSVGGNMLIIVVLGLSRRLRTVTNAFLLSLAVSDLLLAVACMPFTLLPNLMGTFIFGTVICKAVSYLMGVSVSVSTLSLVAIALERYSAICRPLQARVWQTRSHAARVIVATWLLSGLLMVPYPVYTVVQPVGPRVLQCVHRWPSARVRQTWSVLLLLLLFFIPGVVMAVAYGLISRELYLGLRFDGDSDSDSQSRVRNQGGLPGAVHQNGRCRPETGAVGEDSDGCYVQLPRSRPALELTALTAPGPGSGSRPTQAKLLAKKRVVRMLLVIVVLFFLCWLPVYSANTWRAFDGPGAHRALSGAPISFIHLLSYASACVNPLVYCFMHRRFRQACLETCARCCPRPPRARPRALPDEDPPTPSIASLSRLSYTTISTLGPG

[7] = target: T5, human cholecystokinin B receptor (CCKB); assay: cell-based or functional assay; remark: listed apart in the source
human PAR2 = target: T6, human PAR2 (human, UniProt P55085 37-397); assay: cell-based or functional assay
T6 sequence (looked up): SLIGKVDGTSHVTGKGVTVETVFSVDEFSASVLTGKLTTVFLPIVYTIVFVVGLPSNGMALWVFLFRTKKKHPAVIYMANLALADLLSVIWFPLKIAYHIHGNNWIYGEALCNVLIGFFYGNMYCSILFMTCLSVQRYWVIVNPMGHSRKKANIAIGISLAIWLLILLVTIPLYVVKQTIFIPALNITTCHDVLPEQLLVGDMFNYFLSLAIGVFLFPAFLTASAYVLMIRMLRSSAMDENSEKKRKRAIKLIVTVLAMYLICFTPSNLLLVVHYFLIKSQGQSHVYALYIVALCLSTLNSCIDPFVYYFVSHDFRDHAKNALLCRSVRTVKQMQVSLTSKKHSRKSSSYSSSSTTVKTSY

thrombin
reduction of efficacy against wild type PAR1 (PLC-beta, InsP) (PAR1 delta377 mutant): Efficacy is reduced by 2-3 fold for the two PAR1 agonists

B1: P1pal-19 (Pal-RCLSSSAVANRSKKSRALF) (peptide)
peptide: Palmitoyl-RCLSSSAVANRSKKSRALF-NH2
SMILES: CCCCCCCCCCCCCCCC(=O)N[C@@H](CCCNC(=N)N)C(=O)N[C@@H](CS)C(=O)N[C@@H](CC(C)C)C(=O)N[C@@H](CO)C(=O)N[C@@H](CO)C(=O)N[C@@H](CO)C(=O)N[C@@H](C)C(=O)N[C@H](C(=O)N[C@@H](C)C(=O)N[C@@H](CC(N)=O)C(=O)N[C@@H](CCCNC(=N)N)C(=O)N[C@@H](CO)C(=O)N[C@@H](CCCCN)C(=O)N[C@@H](CCCCN)C(=O)N[C@@H](CO)C(=O)N[C@@H](CCCNC(=N)N)C(=O)N[C@@H](C)C(=O)N[C@@H](CC(C)C)C(=O)N[C@@H](Cc1ccccc1)C(N)=O)C(C)C
loss in efficacy against wild type PAR1 (InsP) (PAR1 S309P mutant): 4.3 fold | loss in potency against wild type PAR1 (InsP) (PAR1 S309P mutant): 13 fold | platelet aggregation EC50 (human PAR1 [1]): 8000 nM | Agonist EC50 (activating phase, InsP formation) (human PAR1 [2]): 180 nM | Agonist Efficacy (% of full response to extracellular agonist) (human PAR1 [2]): 90% | Agonist IC50 (inhibitory phase, InsP formation) (human PAR1 [2]): 6500 nM

B2: P1pal-19Q (Pal-RCLSSSAVANQSQQSQALF) (peptide)
peptide: Palmitoyl-RCLSSSAVANQSQQSQALF-NH2
SMILES: CCCCCCCCCCCCCCCC(=O)N[C@@H](CCCNC(=N)N)C(=O)N[C@@H](CS)C(=O)N[C@@H](CC(C)C)C(=O)N[C@@H](CO)C(=O)N[C@@H](CO)C(=O)N[C@@H](CO)C(=O)N[C@@H](C)C(=O)N[C@H](C(=O)N[C@@H](C)C(=O)N[C@@H](CC(N)=O)C(=O)N[C@@H](CCC(N)=O)C(=O)N[C@@H](CO)C(=O)N[C@@H](CCC(N)=O)C(=O)N[C@@H](CCC(N)=O)C(=O)N[C@@H](CO)C(=O)N[C@@H](CCC(N)=O)C(=O)N[C@@H](C)C(=O)N[C@@H](CC(C)C)C(=O)N[C@@H](Cc1ccccc1)C(N)=O)C(C)C
loss in efficacy, platelet aggregation or InsP in PAR1-Rat1 cells (human PAR1 [1]): 2 fold | Agonist EC50 (activating phase, InsP formation) (human PAR1 [2]): 650 nM | Agonist Efficacy (% of full response to extracellular agonist) (human PAR1 [2]): 46% | Agonist IC50 (inhibitory phase, InsP formation) (human PAR1 [2]): 30000 nM

B3: P4pal-10 (Pal-SGRRYGHALR) (peptide)
peptide: Palmitoyl-SGRRYGHALR-NH2
SMILES: CCCCCCCCCCCCCCCC(=O)N[C@@H](CO)C(=O)NCC(=O)N[C@@H](CCCNC(=N)N)C(=O)N[C@@H](CCCNC(=N)N)C(=O)N[C@@H](Cc1ccc(O)cc1)C(=O)NCC(=O)N[C@@H](Cc1c[nH]cn1)C(=O)N[C@@H](C)C(=O)N[C@@H](CC(C)C)C(=O)N[C@@H](CCCNC(=N)N)C(N)=O
IC50, inhibition of platelet aggregation to AYPGKF (human PAR4 [3]): 500 to 1000 nM | inhibition of the rate of murine platelet aggregation to 3 nM thrombin, 3 µM pepducin (murine PAR4): 7 fold

B4: G1pal-15 pepducin (peptide)
peptide: Palmitoyl-ANLMSKTDIKCRLAF-NH2
SMILES: CCCCCCCCCCCCCCCC(=O)N[C@@H](C)C(=O)N[C@@H](CC(N)=O)C(=O)N[C@@H](CC(C)C)C(=O)N[C@@H](CCSC)C(=O)N[C@@H](CO)C(=O)N[C@@H](CCCCN)C(=O)N[C@H](C(=O)N[C@@H](CC(=O)O)C(=O)N[C@H](C(=O)N[C@@H](CCCCN)C(=O)N[C@@H](CS)C(=O)N[C@@H](CCCNC(=N)N)C(=O)N[C@@H](CC(C)C)C(=O)N[C@@H](C)C(=O)N[C@@H](Cc1ccccc1)C(N)=O)[C@@H](C)CC)[C@@H](C)O
cAMP in Cos7 fibroblasts, fold activation at 1 µM pepducin [4]: 1.7 fold

B5: P4pal-15 (Pal-HTLAASGRRYGHALR) (peptide)
peptide: Palmitoyl-HTLAASGRRYGHALR-NH2
SMILES: CCCCCCCCCCCCCCCC(=O)N[C@@H](Cc1c[nH]cn1)C(=O)N[C@H](C(=O)N[C@@H](CC(C)C)C(=O)N[C@@H](C)C(=O)N[C@@H](C)C(=O)N[C@@H](CO)C(=O)NCC(=O)N[C@@H](CCCNC(=N)N)C(=O)N[C@@H](CCCNC(=N)N)C(=O)N[C@@H](Cc1ccc(O)cc1)C(=O)NCC(=O)N[C@@H](Cc1c[nH]cn1)C(=O)N[C@@H](C)C(=O)N[C@@H](CC(C)C)C(=O)N[C@@H](CCCNC(=N)N)C(N)=O)[C@@H](C)O
IC50, inhibition of platelet aggregation to 200 micromolar AYPGKF (human PAR4 [3]): 600 nM | Antagonist IC50 (InsP formation, against 10 nM thrombin) (human PAR4 [5]): 3000 nM

B6: P4pal-15F (Pal-HTLAASGRRYGHALF) (peptide)
peptide: Palmitoyl-HTLAASGRRYGHALF-NH2
SMILES: CCCCCCCCCCCCCCCC(=O)N[C@@H](Cc1c[nH]cn1)C(=O)N[C@H](C(=O)N[C@@H](CC(C)C)C(=O)N[C@@H](C)C(=O)N[C@@H](C)C(=O)N[C@@H](CO)C(=O)NCC(=O)N[C@@H](CCCNC(=N)N)C(=O)N[C@@H](CCCNC(=N)N)C(=O)N[C@@H](Cc1ccc(O)cc1)C(=O)NCC(=O)N[C@@H](Cc1c[nH]cn1)C(=O)N[C@@H](C)C(=O)N[C@@H](CC(C)C)C(=O)N[C@@H](Cc1ccccc1)C(N)=O)[C@@H](C)O
Antagonist IC50 (InsP formation, against 10 nM thrombin) (human PAR4 [5]): > 2000 nM

B7: Bpal-18F (Pal-SGSRPTQAKLLAKKRVVF) (peptide)
peptide: Palmitoyl-SGSRPTQAKLLAKKRVVF-NH2
SMILES: CCCCCCCCCCCCCCCC(=O)N[C@@H](CO)C(=O)NCC(=O)N[C@@H](CO)C(=O)N[C@@H](CCCNC(=N)N)C(=O)N1CCC[C@H]1C(=O)N[C@H](C(=O)N[C@@H](CCC(N)=O)C(=O)N[C@@H](C)C(=O)N[C@@H](CCCCN)C(=O)N[C@@H](CC(C)C)C(=O)N[C@@H](CC(C)C)C(=O)N[C@@H](C)C(=O)N[C@@H](CCCCN)C(=O)N[C@@H](CCCCN)C(=O)N[C@@H](CCCNC(=N)N)C(=O)N[C@H](C(=O)N[C@H](C(=O)N[C@@H](Cc1ccccc1)C(N)=O)C(C)C)C(C)C)[C@@H](C)O
improvement of potency against the wild-type CCKB peptide [6]: 15 fold | Agonist EC50 (activating phase, InsP formation) [7]: 100 nM | Agonist Efficacy (% of full response to 300 nM CCK-8) [7]: 13% | Agonist IC50 (inhibitory phase, InsP formation) [7]: 1000 nM

B8: SLIGKV (peptide)
peptide: SLIGKV
InsP formation, fold-stimulation by 100 micromolar SLIGKV (P2pal-21 experiment) (human PAR2): 3.1 fold
